From patent US11866760B2, “Microorganisms for the production of insect pheromones and related compounds” (Provivi, Inc., priority 2017, dated 2024)

Key:
S. cerevisiae ΔOLE1 = assay: ΔOLE1 growth complementation assay without UFA; assay type: cell-based, Saccharomyces cerevisiae
Excerpt: S. cerevisiae ΔOLE1 (MATA OLE1::LEU2 ura3-52 his4) was used as an expression host. A synthetic expression cassette termed pOLE1 (FIG. 10, SEQ ID NO: 4) which comprises the OLE1 promoter region (SEQ ID NOs: 5 and 6), nucleotides encoding for 27 N-terminal amino acids of the OLE1 leader sequence (SEQ ID NO: 7), and a VPS13 terminator sequence (SEQ ID NO: 8) was created, and cloned into pESC-URA vector in between SacI and EcoRI sites. To test the functionality of the pOLE1 cassette, Dasher GFP synthon was inserted in between SpeI and NotI sites to create pOLE1-GFP plasmid. Competent ΔOLE1 was transformed with pOLE1-GFP, and plated on CM-Ura glucose agar plate (Teknova) containing UFA (20 mm CM-URA glucose agar plate was coated with 100 μL CM-Ura glucose medium containing 1% tergitol, and 3 μL palmitoleic acid). […] Validation of ΔOLE1 complementation was performed by restoring OLE1 activity. Specifically, native S. cerevisiae OLE1 synthon was inserted into pOLE1 cassette devoid of the leader sequence to create pOLE1-OLE1 plasmid. After transformation of ΔOLE1, and selection on CM-Ura glucose agar containing UFA, single colonies were patched onto YPD and CM-Ura glucose without UFA. After incubation at 30° C. for 5 days, growth was observed (FIG. 11A-FIG. 11E). As expected, Dasher GFP expression could not complement ΔOLE1 growth without UFA (FIG. 11A-FIG. 11E). DNA sequences which encode for desaturase variants were synthesized (to include nucleotide changes which remove restriction sites used for cloning purposes), and cloned into pOLE1 using SpeI-NotI sites (Genscript, SEQ ID NOs: 9-13). Complementation assay of ΔOLE1 with insect desaturases were performed in the same way as with OLE1 desaturase.

palmitic acid [1] = assay: in vivo bioconversion assay of desaturases in C. tropicalis SPV053; assay type: cell-based, Candida tropicalis
Protocol: Functional expression of the heterologous desaturases was characterized by a series of in vivo bioconversion experiments. C. tropicalis SPV053 derived stains expressing insect desaturases were cultured in rich (YPD) or defined (CM glucose) media supplemented with ethanol (for induction) and saturated acid substrates (palmitic acid, methyl palmitate, methyl myristate). Small scale (2 ml) cultures were cultivated for a total of 72 hours in 24 deep well plates with substrate added after the initial 24 hours.
Positive isolates were re-patched onto YPD+300 μg/ml Zeocin and grown overnight and then stored at 4° C. Strains were inoculated from patch plates into 2 ml of YPD in 24 deep well plates (square well, pyramid bottom). Three positive clones were inoculated for each desaturase variant and the mCherry expressing control strain. Deep well plates were incubated at 30° C., 1000 rpm, and 80% humidity in the Infors HT Multitron Pro plate shaker for 24 hrs. After 24 hrs of incubation, cultures were split into equal 1 ml volumes to make two sets of identical plates. Both sets of plates were pelleted by centrifugation at 500×g. One set of plates was resuspended in 2 ml of YPD+0.3% (v/v) ethanol and the second set was resuspended in 2 ml of CM glucose+0.3% ethanol. Ethanol was added at this stage to induce recombinant enzyme expression from the ICL promoter. Cultures were incubated for another 24 hours under the same conditions before 300 mg/L palmitic acid was added to cultures from a 90 g/L stock solution in ethanol. The result was the addition of a fresh 0.3% ethanol in conjunction with the palmitic acid. A subset of strains was also cultured without palmitic acid addition. These cultures had 0.3% ethanol added instead. All cultures were incubated for an additional 24 hrs before a final addition of 0.3% ethanol. After another 24 hr period of incubation, 1.5 ml of each culture was harvested in 1.7 ml microcentrifuge tubes and pelleted. Supernatant was saved in fresh tubes and pellets were processed as described below. A subset of supernatant samples was also extracted to look for free acid in the extracellular medium.
The mCherry control and confirmed positive variants were rescreened using both palmitic acid and methyl palmitate as substrates. The culturing was conducted as described above with equimolar (1.17 mM) amounts of substrate added from ethanol stock solutions (methyl palmitate 94 g/L stock, 313 mg/L final concentration). The same protocol was also repeated with the full panel of strains using an 84 g/L stock of methyl myristate (C14:0). The final concentration of substrate was again 1.17 mM.
The in vivo bioconversion assay was scaled up for confirmation of (Z)-11-hexadecenoic acid synthesis. 2 ml YPD seed cultures of strains SPV0302, SPV0303, and SPV0304 (mCherry), […], SPV0305, and SPV0306 (A. transitella Z11 desaturase), and SPV0307, SPV0308, and SPV0309 (H. zea Z11 desaturase) were grown overnight at 30° C., 1000 rpm, 80% humidity in the Infors HT Multitron plate shaker. 200 μl of overnight culture from each of the three clonal isolates was pooled and inoculated into a single 125 ml baffled flask containing 20 ml YPD. The resulting three flasks were grown for 24 hrs at 30° C. and 250 rpm (Infors Flask shaker). Cultures were pelleted by centrifugation at 500×g and resuspended in 20 ml of YPD+0.3% (v/v) ethanol and returned to 125 ml baffled shake flasks. Cultures were incubated for an additional 24 hours before addition of 300 mg/L palmitic acid in a 90 g/L stock in ethanol (221 μl per flask). After 24 hours of incubation another 0.3% (v/v) ethanol (221 μl) was added to each flask for sustained induction. Flasks were incubated for an additional 24 hours before cells were harvested for FAME analysis and DMDS derivatization.
Total lipid composition as well as the (Z)-11-hexadecenoic acid quantification was based on modified procedures by Moss et al. (1982) and Yousuf et al (2010). […]

palmitic acid [2] = assay: in vivo bioconversion of palmitic acid into Z11-hexadecenoic acid in Y. lipolytica SPV140 and SPV300; assay type: cell-based, Yarrowia lipolytica; details: from ~500 mg/L palmitic acid substrate, 24 well plate assay
Protocol: Functional activity was assessed by a modification of the protocol used for transmembrane desaturase expression in C. viswanathii SPV053 (See Example 6). Briefly, Y. lipolytica SPV140 and SPV300 derived stains expressing insect desaturases were cultured in rich (YPD) to generate biomass. Using the YPD generated biomass, small scale (2 ml) cultures were cultivated with palmitic acid for a total of 48 hours in 24 deep well plates (See Materials & Methods for detail).
Positive isolates were re-patched onto YPD, grown overnight, and then stored at 4° C. Strains were inoculated from patch plates into 2 ml of YPD in 24 deep well plates (square well, pyramid bottom). Three positive clones were inoculated for each desaturase variant. Three isolates of pPV101 in SPV140 and the parent SPV300 were used as negative controls. Deep well plates were incubated at 28° C. and 250 rpm in the Infors Multitron refrigerated flask shaker for 24 hrs. […] Final cell densities were measured with the Tecan Infinite 200pro plate reader. […]
Total lipid composition as well as the (Z)-11-hexadecenoic acid quantification was based on modified procedures by Moss et al. (1982) and Yousuf et al (2010). […] For the analysis of lipids and the quantification of fatty acids 50 μL of 0.2 M TMSH (trimethylsulfonium hydroxide in methanol) was added and the sample analyzed by GC-FID.

[3] = SPV053, supplementation not stated
[4] = SPV053, with palmitic acid supplementation

B1: H. zea desaturase: Helicoverpa zea Z11 desaturase (AAF81787), SEQ ID NO: 54 (protein, listed as Helicoverpa zea)
chain: MAQSYQSTTVLSEEKELTLQHLVPQASPRKYQIVYPNLITFGYWHIAGLYGLYLCFTSAKWATILFSYILFVLAEIGITAGAHRLWAHKTYKAKLPLEILLMVFNSIAFQNSAIDWVRDHRLHHKYSDTDADPHNASRGFFYSHVGWLLVRKHPEVKKRGKELNMSDIYNNPVLRFQKKYAIPFIGAVCFALPTMIPVYFWGETWSNAWHITMLRYIMNLNVTFLVNSAAHIWGNKPYDAKILPAQNVAVSVATGGEGFHNYHHVFPWDYRAAELGNNSLNLTTKFIDLFAAIGWAYDLKTVSEDMIKQRIKRTGDGTDLWGHEQNCDEVWDVKDKSS
Question: Which results are given for B1?
Answer: rescue of ΔOLE1 growth without UFA (S. cerevisiae ΔOLE1; minimal medium (CM-Ura glucose) agar plate): conferred growth without UFA; rescue of ΔOLE1 growth without UFA (S. cerevisiae ΔOLE1; rich medium (YPD) agar plate): conferred growth without UFA; (Z)-11-hexadecenoic acid titer (palmitic acid [1]; SPV053): ~5.96 mg/L; activity on myristoyl-CoA (palmitic acid [1]; SPV053, methyl myristate substrate): some activity on myristoyl-CoA; (Z)-11/(Z)-9 hexadecenoic acid ratio (palmitic acid [1]; SPV053, palmitic acid supplemented): 1.4; (Z)-9-hexadecenoic acid in C16-fatty acid composition (palmitic acid [1]; [3]): ~30.91%; (Z)-11-hexadecenoic acid in C16-fatty acid composition (palmitic acid [1]; [3]): ~19.1%; hexadecanoic acid in C16-fatty acid composition (palmitic acid [1]; [3]): approximately 50.0%; (Z)-9-hexadecenoic acid in C16-fatty acid composition (palmitic acid [1]; [4]): 17.5%; (Z)-11-hexadecenoic acid in C16-fatty acid composition (palmitic acid [1]; [4]): 24.4%; hexadecanoic acid in C16-fatty acid composition (palmitic acid [1]; [4]): 58.1%; (Z)-11/(Z)-9 hexadecenoic acid ratio (palmitic acid [1]; SPV053, without palmitic acid supplementation): 0.6; Z11-hexadecenoic acid production (palmitic acid [2]): ~100 mg/L
